Data from patent US20070231897A1, “Induction of Insulin Secreting Cell” (KYOTO UNIVERSITY, priority 2004, published 2007).

System: pancreatic acinar cells
Assay: Effect of growth factors on insulin-positive cell induction in main culture of pancreatic acinar cells
Assay type: cell-based, mouse
Details: day 7 of culture; EGF 20 ng/ml, HGF, FGF7 and FGF10 10 ng/ml, GLP-1 30 ng/ml; rank among growth factors (FIG. 8B)
Procedure: Eight-week old male mice (C57B1/6Cr Slc)(Japan SLC, Inc.: Hamamatsu, Japan) were anesthetized with 50 mg/kg of Nembtal (Dainippon Pharma Co., Ltd.: Osaka, Japan) and subjected to laparotomy. The choledoch duct was ligated near the position where it opens to the duodenum. Using a 27G winged needle (Terumo Corporation: Tokyo, Japan), 2-3 ml of Hank's buffer containing 0.05% collagenase P (Roche: Basel, Switzerland) and 10% fetal bovine serum was infused from the liver side. The pancreas, now swollen, was extracted and digested in 5 ml of Hank's buffer per pancreas for 18 minutes at 37° C. The digested pancreas then was made to pass through a 14G indwelling needle in both directions twice to disperse the pancreatic cells, which washed well with Hank's buffer containing 0.1% bovine serum albumin (Sigma: Saint Louis, Mo., USA). The pancreatic cells thus obtained were suspended in a mixed solution (solution A) consisting of 8.3% Ficoll 400 (Amersham Bioscience: Uppsala, Sweden) and 16.7% Conray 400 (Daiichi Pharmaceutical, Tokyo, Japan), and after a 87.5%-diluted solution of solution A and then a 50%-diluted solution of solution A were placed on it in the order, centrifuged (2,000 rpm, 10 min). […]

B1: fibroblast growth factor 10 (protein, UniProt O15520 38-208, looked up)
Fibroblast growth factor 10: QALGQDMVSPEATNSSSSSFSSPSSAGRHVRSYNHLQGDVRWRKLFSFTKYFLKIEKNGKVSGTKKENCPYSILEITSVEIGVVAVKAINSNYYLAMNKKGKLYGSKEFNNDCKLKERIEENGYNTYASFNWQHNGRQMYVALNGKGAPRRGQKTRRKNTSAHFLPMVVHS
notes: fibroblast growth factor 10 (R&D Systems), growth factor added to the culture medium
- proportion of insulin-positive cells: this was followed by FGF10 and HGF
